{
  "source": "patent US5637476",
  "biological_target": "T1, SfiI modification methylase (M.SfiI) (Streptomyces fimbriatus) (UniProt O52513)",
  "T1 sequence": "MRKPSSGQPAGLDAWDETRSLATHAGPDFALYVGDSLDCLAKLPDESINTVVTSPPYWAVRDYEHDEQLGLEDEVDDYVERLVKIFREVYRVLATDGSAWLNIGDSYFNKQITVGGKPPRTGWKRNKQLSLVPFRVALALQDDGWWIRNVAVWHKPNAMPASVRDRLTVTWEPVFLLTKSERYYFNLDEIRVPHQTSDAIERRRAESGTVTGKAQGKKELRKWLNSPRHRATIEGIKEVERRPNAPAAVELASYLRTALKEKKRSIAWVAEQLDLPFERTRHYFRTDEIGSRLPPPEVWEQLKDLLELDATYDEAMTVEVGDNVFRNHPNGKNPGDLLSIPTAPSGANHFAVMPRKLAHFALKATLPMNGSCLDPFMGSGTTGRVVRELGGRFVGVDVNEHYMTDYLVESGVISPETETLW",
  "assay": "inhibition",
  "conditions": "protection from SfiI cleavage; 10 mM EDTA, 0.1 mM AdoMet, 37 C; 0.3M and 0.5M KCl fractions",
  "data": [
    {"substance": "T4 DNA", "values": [
      {"measurement": "activity", "value": 2500, "unit": "units/ml"}
    ]}
  ]
}
